Values of other authors in publication PMC3433420.
Where two headings read alike, the source gives them in different places.

Tests used:
Conditions in all cases: cited from earlier work
SYK-NC (Homo sapiens) [1] = target: SYK-NC (Homo sapiens) (UniProt P43405)
GRB7 (Homo sapiens) = GRB7 (Homo sapiens) (UniProt Q14451)
PIK3R1-N (Homo sapiens) = PIK3R1-N (Homo sapiens) (UniProt P27986)
SLA (Homo sapiens) [2] = target: SLA (Homo sapiens) (UniProt Q13239)
BLK (Homo sapiens) = BLK (Homo sapiens) (UniProt P51451)
ITK (Homo sapiens) = ITK (Homo sapiens) (UniProt Q08881)
ABL2 (Homo sapiens) [3] = target: ABL2 (Homo sapiens) (UniProt P42684)
CRK (Homo sapiens) [4] = target: CRK (Homo sapiens) (UniProt P46108)
PLCG1-NC (Homo sapiens) [5] = target: PLCG1-NC (Homo sapiens) (UniProt P19174)
PTPN11-NC (Homo sapiens) = PTPN11-NC (Homo sapiens) (UniProt Q06124)
PLCG2-NC (Homo sapiens) = PLCG2-NC (Homo sapiens) (UniProt P16885)
PIK3R3-NC (Homo sapiens) [6] = target: PIK3R3-NC (Homo sapiens) (UniProt Q92569)
LYN (Homo sapiens) = LYN (Homo sapiens) (UniProt P07948)
FGR (Homo sapiens) = FGR (Homo sapiens) (UniProt P09769)
RASA1-N (Homo sapiens) [7] = target: RASA1-N (Homo sapiens) (UniProt P20936)
TENC1 (Homo sapiens) = TENC1 (Homo sapiens) (UniProt Q63HR2)
VAV1 (Homo sapiens) [8] = target: VAV1 (Homo sapiens) (UniProt P15498)
SH2D2A (Homo sapiens) = SH2D2A (Homo sapiens) (UniProt Q9NP31)
GRB2 (Homo sapiens) = GRB2 (Homo sapiens) (UniProt P62993)
PIK3R1-NC (Homo sapiens) = PIK3R1-NC (Homo sapiens) (UniProt P27986)
ABL1 (Homo sapiens) = ABL1 (Homo sapiens) (UniProt P00519)
SH3BP2 (Homo sapiens) = SH3BP2 (Homo sapiens) (UniProt P78314)
NCK2 (Homo sapiens) [9] = target: NCK2 (Homo sapiens) (UniProt O43639)
PIK3R3-N (Homo sapiens) = PIK3R3-N (Homo sapiens) (UniProt Q92569)
TNS3 (Homo sapiens) = TNS3 (Homo sapiens) (UniProt Q68CZ2)
SRC (Homo sapiens) = SRC (Homo sapiens) (UniProt P12931)
PIK3R2-NC (Homo sapiens) = PIK3R2-NC (Homo sapiens) (UniProt O00459)
BCAR3 (Homo sapiens) = BCAR3 (Homo sapiens) (UniProt O75815)
VAV2 (Homo sapiens) [10] = target: VAV2 (Homo sapiens) (UniProt P52735)
BMX (Homo sapiens) = BMX (Homo sapiens) (UniProt P51813)
CRKL (Homo sapiens) [11] = target: CRKL (Homo sapiens) (UniProt P46109)
GRAP2 (Homo sapiens) = GRAP2 (Homo sapiens) (UniProt O75791)
HCK (Homo sapiens) = HCK (Homo sapiens) (UniProt P08631)
PIK3R2-N (Homo sapiens) [12] = target: PIK3R2-N (Homo sapiens) (UniProt O00459)
PIK3R3-C (Homo sapiens) = PIK3R3-C (Homo sapiens) (UniProt Q92569)
PLCG1-C (Homo sapiens) [13] = target: PLCG1-C (Homo sapiens) (UniProt P19174)
SYK-NC (Homo sapiens) [14] = target: SYK-NC (Homo sapiens) (UniProt P43405); remark: listed apart in the source
SLA (Homo sapiens) [15] = target: SLA (Homo sapiens) (UniProt Q13239); remark: listed apart in the source
ABL2 (Homo sapiens) [16] = target: ABL2 (Homo sapiens) (UniProt P42684); remark: listed apart in the source
ABL2 (Homo sapiens) [17] = target: ABL2 (Homo sapiens) (UniProt P42684); remark: listed apart in the source
CRK (Homo sapiens) [18] = target: CRK (Homo sapiens) (UniProt P46108); remark: listed apart in the source
PLCG1-NC (Homo sapiens) [19] = target: PLCG1-NC (Homo sapiens) (UniProt P19174); remark: listed apart in the source
PIK3R3-NC (Homo sapiens) [20] = target: PIK3R3-NC (Homo sapiens) (UniProt Q92569); remark: listed apart in the source
VAV3 (Homo sapiens) = VAV3 (Homo sapiens) (UniProt Q9UKW4)
RASA1-N (Homo sapiens) [21] = target: RASA1-N (Homo sapiens) (UniProt P20936); remark: listed apart in the source
RASA1-N (Homo sapiens) [22] = target: RASA1-N (Homo sapiens) (UniProt P20936); remark: listed apart in the source
VAV1 (Homo sapiens) [23] = target: VAV1 (Homo sapiens) (UniProt P15498); remark: listed apart in the source
NCK2 (Homo sapiens) [24] = target: NCK2 (Homo sapiens) (UniProt O43639); remark: listed apart in the source
PTPN11-N (Homo sapiens) = PTPN11-N (Homo sapiens) (UniProt Q06124)
VAV2 (Homo sapiens) [25] = target: VAV2 (Homo sapiens) (UniProt P52735); remark: listed apart in the source
VAV2 (Homo sapiens) [26] = target: VAV2 (Homo sapiens) (UniProt P52735); remark: listed apart in the source
CRKL (Homo sapiens) [27] = target: CRKL (Homo sapiens) (UniProt P46109); remark: listed apart in the source
PIK3R2-N (Homo sapiens) [28] = target: PIK3R2-N (Homo sapiens) (UniProt O00459); remark: listed apart in the source
PLCG1-C (Homo sapiens) [29] = target: PLCG1-C (Homo sapiens) (UniProt P19174); remark: listed apart in the source

Chain of VAV2 (Homo sapiens) (P52735 668-772): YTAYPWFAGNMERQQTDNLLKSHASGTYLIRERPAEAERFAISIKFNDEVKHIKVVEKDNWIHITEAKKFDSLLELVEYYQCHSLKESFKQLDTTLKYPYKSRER
Chain of ABL2 (Homo sapiens) (P42684 168-268): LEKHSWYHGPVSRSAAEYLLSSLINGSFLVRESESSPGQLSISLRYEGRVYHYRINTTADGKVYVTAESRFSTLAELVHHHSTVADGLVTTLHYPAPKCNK
Chain of RASA1-N (Homo sapiens) (P20936 176-446): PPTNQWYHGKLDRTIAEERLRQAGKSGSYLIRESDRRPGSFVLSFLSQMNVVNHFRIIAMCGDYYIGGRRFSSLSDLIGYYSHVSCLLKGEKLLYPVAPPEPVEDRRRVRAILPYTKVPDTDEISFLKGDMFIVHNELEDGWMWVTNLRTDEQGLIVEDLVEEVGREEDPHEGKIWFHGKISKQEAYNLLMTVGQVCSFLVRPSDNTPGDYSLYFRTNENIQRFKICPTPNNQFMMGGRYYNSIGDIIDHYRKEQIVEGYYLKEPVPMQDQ
Chain of CRKL (Homo sapiens) (P46109 9-107): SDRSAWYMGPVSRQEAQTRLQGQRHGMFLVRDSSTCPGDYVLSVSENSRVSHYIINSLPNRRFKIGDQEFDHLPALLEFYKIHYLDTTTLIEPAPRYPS
Chain of PLCG1-NC (Homo sapiens) (P19174 545-761): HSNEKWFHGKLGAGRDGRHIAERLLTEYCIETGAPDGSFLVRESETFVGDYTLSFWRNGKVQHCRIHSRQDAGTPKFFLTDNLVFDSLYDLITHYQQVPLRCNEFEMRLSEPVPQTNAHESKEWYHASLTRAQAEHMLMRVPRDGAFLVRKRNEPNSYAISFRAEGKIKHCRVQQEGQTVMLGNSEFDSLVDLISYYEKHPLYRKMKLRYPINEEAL
Chain of PLCG1-C (Homo sapiens) (P19174 545-761): as above
Chain of VAV1 (Homo sapiens) (P15498 666-770): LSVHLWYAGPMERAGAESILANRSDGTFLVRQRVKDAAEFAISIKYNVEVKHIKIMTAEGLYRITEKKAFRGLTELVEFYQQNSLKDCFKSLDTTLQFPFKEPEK
Chain of SLA (Homo sapiens) (Q13239 79-180): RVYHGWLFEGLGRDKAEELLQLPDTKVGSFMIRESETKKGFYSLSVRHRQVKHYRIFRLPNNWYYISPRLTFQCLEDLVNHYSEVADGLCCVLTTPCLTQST
Chain of NCK2 (Homo sapiens) (O43639 280-380): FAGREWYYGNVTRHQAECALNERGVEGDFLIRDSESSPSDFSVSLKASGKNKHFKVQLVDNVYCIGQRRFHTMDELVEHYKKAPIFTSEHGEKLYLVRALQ
Chain of PIK3R2-N (Homo sapiens) (O00459 325-721): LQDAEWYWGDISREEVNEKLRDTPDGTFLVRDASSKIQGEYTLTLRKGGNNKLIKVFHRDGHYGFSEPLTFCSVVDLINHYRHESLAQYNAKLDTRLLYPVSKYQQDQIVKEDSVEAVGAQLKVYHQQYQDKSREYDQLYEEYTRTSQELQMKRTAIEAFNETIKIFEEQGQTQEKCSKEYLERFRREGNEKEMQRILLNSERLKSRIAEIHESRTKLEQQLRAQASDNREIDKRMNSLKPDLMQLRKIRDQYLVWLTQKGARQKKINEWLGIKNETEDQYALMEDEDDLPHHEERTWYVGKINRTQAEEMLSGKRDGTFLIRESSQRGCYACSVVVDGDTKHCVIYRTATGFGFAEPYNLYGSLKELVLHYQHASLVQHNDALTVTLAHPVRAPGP
Chain of CRK (Homo sapiens) (P46108 8-123): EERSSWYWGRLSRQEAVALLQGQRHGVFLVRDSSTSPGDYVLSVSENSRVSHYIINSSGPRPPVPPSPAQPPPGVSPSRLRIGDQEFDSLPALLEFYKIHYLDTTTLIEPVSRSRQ
Chain of ABL1 (Homo sapiens) (P00519 122-222): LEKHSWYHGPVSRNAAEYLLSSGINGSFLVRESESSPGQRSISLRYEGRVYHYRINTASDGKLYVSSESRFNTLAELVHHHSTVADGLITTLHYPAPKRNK
Chain of GRAP2 (Homo sapiens) (O75791 53-154): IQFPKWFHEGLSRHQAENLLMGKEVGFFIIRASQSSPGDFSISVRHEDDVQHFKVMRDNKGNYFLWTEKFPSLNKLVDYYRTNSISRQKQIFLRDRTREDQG
Chain of BLK (Homo sapiens) (P51451 119-225): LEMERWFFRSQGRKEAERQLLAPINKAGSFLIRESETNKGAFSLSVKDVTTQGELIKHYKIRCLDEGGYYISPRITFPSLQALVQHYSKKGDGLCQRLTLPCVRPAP
Chain of HCK (Homo sapiens) (P08631 139-246): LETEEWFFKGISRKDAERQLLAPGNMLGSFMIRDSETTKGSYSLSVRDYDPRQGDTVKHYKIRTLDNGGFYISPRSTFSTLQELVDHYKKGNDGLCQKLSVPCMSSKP
Chain of TNS3 (Homo sapiens) (Q68CZ2 1167-1287): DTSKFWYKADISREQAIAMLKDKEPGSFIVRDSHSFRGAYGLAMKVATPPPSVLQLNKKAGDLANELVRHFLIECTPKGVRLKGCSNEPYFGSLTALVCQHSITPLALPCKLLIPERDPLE
Chain of PLCG2-NC (Homo sapiens) (P16885 527-740): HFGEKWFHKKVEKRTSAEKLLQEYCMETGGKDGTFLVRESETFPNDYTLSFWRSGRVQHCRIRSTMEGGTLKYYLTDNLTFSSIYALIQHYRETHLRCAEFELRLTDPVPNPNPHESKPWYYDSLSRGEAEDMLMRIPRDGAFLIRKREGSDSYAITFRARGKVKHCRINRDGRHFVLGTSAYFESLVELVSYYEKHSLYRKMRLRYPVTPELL
Chain of GRB2 (Homo sapiens) (P62993 55-157): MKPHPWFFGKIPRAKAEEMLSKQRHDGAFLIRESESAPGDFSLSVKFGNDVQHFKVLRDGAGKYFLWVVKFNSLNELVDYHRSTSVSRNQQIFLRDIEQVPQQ
Chain of LYN (Homo sapiens) (P07948 124-231): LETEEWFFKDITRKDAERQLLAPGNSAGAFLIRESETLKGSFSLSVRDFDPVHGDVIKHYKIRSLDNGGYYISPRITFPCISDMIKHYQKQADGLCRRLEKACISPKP
Chain of BCAR3 (Homo sapiens) (O75815 149-258): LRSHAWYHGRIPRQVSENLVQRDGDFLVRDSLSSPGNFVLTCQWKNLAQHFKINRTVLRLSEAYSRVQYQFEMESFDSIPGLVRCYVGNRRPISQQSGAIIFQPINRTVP
Chain of ITK (Homo sapiens) (Q08881 234-343): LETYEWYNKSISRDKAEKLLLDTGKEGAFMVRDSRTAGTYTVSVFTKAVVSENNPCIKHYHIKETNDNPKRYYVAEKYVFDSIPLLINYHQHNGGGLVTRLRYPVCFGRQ
Chain of TENC1 (Homo sapiens) (Q63HR2 1135-1252): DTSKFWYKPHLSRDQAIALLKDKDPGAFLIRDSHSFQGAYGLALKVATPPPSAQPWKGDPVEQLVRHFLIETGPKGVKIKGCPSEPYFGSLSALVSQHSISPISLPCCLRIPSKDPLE
Chain of SH2D2A (Homo sapiens) (Q9NP31 90-191): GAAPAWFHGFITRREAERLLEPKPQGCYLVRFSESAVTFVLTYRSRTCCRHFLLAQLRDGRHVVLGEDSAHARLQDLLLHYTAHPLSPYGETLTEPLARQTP
Chain of BMX (Homo sapiens) (P51813 291-397): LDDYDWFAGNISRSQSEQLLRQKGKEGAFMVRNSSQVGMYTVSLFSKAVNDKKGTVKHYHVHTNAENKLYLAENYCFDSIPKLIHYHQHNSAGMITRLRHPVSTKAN
Chain of GRB7 (Homo sapiens) (Q14451 426-532): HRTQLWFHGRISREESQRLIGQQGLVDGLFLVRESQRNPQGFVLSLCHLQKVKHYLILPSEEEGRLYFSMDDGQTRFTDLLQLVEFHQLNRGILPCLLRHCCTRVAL
Chain of VAV3 (Homo sapiens) (Q9UKW4 667-771): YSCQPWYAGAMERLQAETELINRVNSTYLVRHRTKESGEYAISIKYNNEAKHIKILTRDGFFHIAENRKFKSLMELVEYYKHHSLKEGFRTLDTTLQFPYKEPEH
Chain of SH3BP2 (Homo sapiens) (P78314 452-560): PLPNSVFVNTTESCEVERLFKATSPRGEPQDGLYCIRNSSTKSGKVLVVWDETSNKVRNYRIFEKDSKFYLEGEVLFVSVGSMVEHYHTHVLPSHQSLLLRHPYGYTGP

## …pYVNQPDVR
SYK-NC (Homo sapiens) [1]
  apparent Kd (screen): 0.973 µM
GRB7 (Homo sapiens)
  apparent Kd (screen): 2 µM
PIK3R1-N (Homo sapiens)
  apparent Kd (screen): 0.508 µM
SLA (Homo sapiens) [2]
  apparent Kd (screen): 2 µM
BLK (Homo sapiens)
  apparent Kd (screen): 2 µM
ITK (Homo sapiens)
  apparent Kd (screen): 1.51 µM
ABL2 (Homo sapiens) [3]
  apparent Kd (screen): 0.071 µM
CRK (Homo sapiens) [4]
  apparent Kd (screen): 2 µM
PLCG1-NC (Homo sapiens) [5]
  apparent Kd (screen): 2 µM
PTPN11-NC (Homo sapiens)
  apparent Kd (screen): 0.877 µM
PLCG2-NC (Homo sapiens)
  apparent Kd (screen): 1.28 µM
PIK3R3-NC (Homo sapiens) [6]
  apparent Kd (screen): 0.304 µM
LYN (Homo sapiens)
  apparent Kd (screen): 2 µM
FGR (Homo sapiens)
  apparent Kd (screen): 0.454 µM
RASA1-N (Homo sapiens) [7]
  apparent Kd (screen): 0.675 µM
TENC1 (Homo sapiens)
  apparent Kd (screen): 0.565 µM
VAV1 (Homo sapiens) [8]
  apparent Kd (screen): 0.206 µM
SH2D2A (Homo sapiens)
  apparent Kd (screen): 0.98 µM
GRB2 (Homo sapiens)
  apparent Kd (screen): 0.076 µM
PIK3R1-NC (Homo sapiens)
  apparent Kd (screen): 0.741 µM
ABL1 (Homo sapiens)
  apparent Kd (screen): 0.157 µM
SH3BP2 (Homo sapiens)
  apparent Kd (screen): 0.406 µM
NCK2 (Homo sapiens) [9]
  apparent Kd (screen): 0.777 µM
PIK3R3-N (Homo sapiens)
  apparent Kd (screen): 0.395 µM
TNS3 (Homo sapiens)
  apparent Kd (screen): 0.765 µM
SRC (Homo sapiens)
  apparent Kd (screen): 2 µM
PIK3R2-NC (Homo sapiens)
  apparent Kd (screen): 0.776 µM
BCAR3 (Homo sapiens)
  apparent Kd (screen): 1 µM
VAV2 (Homo sapiens) [10]
  apparent Kd (screen): 0.226 µM
BMX (Homo sapiens)
  apparent Kd (screen): 0.52 µM
CRKL (Homo sapiens) [11]
  apparent Kd (screen): 2 µM
GRAP2 (Homo sapiens)
  apparent Kd (screen): 0.958 µM
HCK (Homo sapiens)
  apparent Kd (screen): 2 µM
PIK3R2-N (Homo sapiens) [12]
  apparent Kd (screen): 0.281 µM
PIK3R3-C (Homo sapiens)
  apparent Kd (screen): 1.22 µM
PLCG1-C (Homo sapiens) [13]
  apparent Kd (screen): 1.93 µM

## …pYLNPVEENd
SYK-NC (Homo sapiens) [14]
  apparent Kd (screen): 2 µM
SLA (Homo sapiens) [15]
  apparent Kd (screen): 2 µM
ABL2 (Homo sapiens) [16]
  apparent Kd (screen): 0.283 µM
ABL2 (Homo sapiens) [17]
  apparent Kd (screen): 0.316 µM
CRK (Homo sapiens) [18]
  apparent Kd (screen): 2 µM
PLCG1-NC (Homo sapiens) [19]
  apparent Kd (screen): 2 µM
PIK3R3-NC (Homo sapiens) [20]
  apparent Kd (screen): 2 µM
VAV3 (Homo sapiens)
  apparent Kd (screen): 2 µM
RASA1-N (Homo sapiens) [21]
  apparent Kd (screen): 0.983 µM
RASA1-N (Homo sapiens) [22]
  apparent Kd (screen): 2 µM
VAV1 (Homo sapiens) [23]
  apparent Kd (screen): 2 µM
NCK2 (Homo sapiens) [24]
  apparent Kd (screen): 2 µM
PTPN11-N (Homo sapiens)
  apparent Kd (screen): 2 µM
VAV2 (Homo sapiens) [25]
  apparent Kd (screen): 0.1 µM
VAV2 (Homo sapiens) [26]
  apparent Kd (screen): 2 µM
CRKL (Homo sapiens) [27]
  apparent Kd (screen): 2 µM
PIK3R2-N (Homo sapiens) [28]
  apparent Kd (screen): 2 µM
PLCG1-C (Homo sapiens) [29]
  apparent Kd (screen): 2 µM
